For 18 molecules, IC50 results are on record in US20220162261A1 (published 2022).

For assay [1], the target named is T1, rh integrin α4β7 (R&D Systems #5397-A30) (human, UniProt P13612 34-970; P26010 20-723).
T1 construct: bought; coated on a nickel coated plate; also called immobilized α4β7; immobilized α4β7 integrin protein
Nature of the assay: competition ELISA vs MAdCAM-1.

Assay [2] deals with T2, α4β1 (R&D Systems #5668-A4) (UniProt P13612 34-970; P05556 21-728, limits assumed).
T2 construct: bought; also called soluble α4β1
The assay can be described thus: competition ELISA vs VCAM-1.

Assay [3] addresses T3, human α4β7 integrin on cells (human, UniProt P13612 34-1032; P26010 20-798).
T3 construct: whole, on cells; also called α4β7 cell (Hu); RPMI8866 cells
Nature of the assay: RPMI8866 cell adhesion to MAdCAM-1.

For assay [4], the target named is T3, human α4β7 integrin on cells. Nature of the assay: RPMI8866 cell adhesion to MAdCAM-1. This is another data set of the same source.
The target in assay [5] is T1, rh integrin α4β7 (R&D Systems #5397-A30). Nature of the assay: competition ELISA vs MAdCAM-1. This is another data set of the same source.

Read-outs that look alike come from different tables or passages of the source. Numbered stars: 1 amine (or outer) side, 2 acyl side, 3 side chain; on linkers, the order of the positions; unused ones are H or OH. Bridge positions count the residues as written; N and C are the ends. Square brackets hold non-standard residues; d marks the D form. Asp(OMe) = L-aspartic acid beta-methyl ester, COC(=O)C[C@H](N[*:1])C(=O)[*:2]; Phe(3,4-Cl2) = N[C@@H](Cc1ccc(Cl)c(Cl)c1)C(=O)O; Phe(4-tBu) = CC(C)(C)c1ccc(C[C@H](N)C(=O)O)cc1; Phe(2,4-Cl2) = N[C@@H](Cc1ccc(Cl)cc1Cl)C(=O)O; NMeR = CN[C@@H](CCCNC(=N)N)C(=O)O; Pen = CC(C)(S)[C@H](N)C(=O)O; βAla = NCCC(=O)O

Take Ac-CRSDTLC-NH2 (disulfide 1-7 (inferred), also called peptide 195) [SEQ ID NO: 195]: the results for the IC50 in assay [1], in assay [2] and in assay [3] were 97 nM, 2880 nM and 1220 nM, respectively.
As for XRSDTLXWE (Cyclo [Pen N-Me-R S D T L Pen W e]; disulfide Pen-Pen) [SEQ ID NO: 145], the IC50 was greater than 10000 nM in assay [4] and 504 nM in assay [5].
For Ac-[Pen][NMeR]S[Asp(OMe)]TL[Pen]WE[dK]-NH2 (disulfide 1-7; also: Biotine, site of attachment not given here) [SEQ ID NO: 69] the same measures were greater than 100 nM and greater than 10 nM.

B1: SEQ ID NO: 73 (peptide)
peptide: Ac-[Pen][NMeR]S[Asp(OMe)]TL[Pen]WE[dK]-NH2
modifications: disulfide 1-7; not fully specified (residue 10); printed as (Ac Pen N-Me-R S D(OMe) T L Pen W E k NH2)2 DIG, disulfide Pen-Pen; also: homodimer: two subunits linked by DIG via D-Lys10 side chain
In the case of B1, the IC50 in assay [4] and in assay [5] was no more than 10 nM in each case.

B2: SEQ ID NO: 206 (peptide)
peptide: Ac-[Pen]RSDTLC[dK]-NH2
modifications: disulfide 1-7
SMILES: CC(=O)N[C@@H]1C(=O)N[C@@H](CCCNC(=N)N)C(=O)N[C@@H](CO)C(=O)N[C@@H](CC(=O)O)C(=O)N[C@@H]([C@@H](C)O)C(=O)N[C@@H](CC(C)C)C(=O)N[C@H](C(=O)N[C@H](CCCCN)C(N)=O)CSSC1(C)C
notes: also called peptide 206
Consider B2, for which, in assay [1], the 50% inhibitory concentration (IC50) turned out to be 97 nM.

B3: SEQ ID NO: 49 (peptide)
peptide: Ac-[Pen][NMeR]SDTL[Pen]WEP[dK]-NH2
modifications: disulfide 1-7
SMILES: CC(=O)N[C@@H]1C(=O)N(C)[C@@H](CCCNC(=N)N)C(=O)N[C@@H](CO)C(=O)N[C@@H](CC(=O)O)C(=O)N[C@@H]([C@@H](C)O)C(=O)N[C@@H](CC(C)C)C(=O)N[C@H](C(=O)N[C@@H](Cc2c[nH]c3ccccc23)C(=O)N[C@@H](CCC(=O)O)C(=O)N2CCC[C@H]2C(=O)N[C@H](CCCCN)C(N)=O)C(C)(C)SSC1(C)C
Turning to B3, the IC50 in assay [5] was greater than 10 nM.

B4: SEQ ID NO: 43 (peptide)
peptide: Ac-[Pen][NMeR]SDTL[Pen][Phe(3,4-Cl2)]E[dK]-NH2
modifications: disulfide 1-7; not fully specified (residue 10); printed as (Ac Pen N-Me-R S D T L Pen F(3,4-diCl) E k NH2)2 DIG, disulfide Pen-Pen; also: dimer, two subunits joined by DIG linker
For the molecule B4, the IC50 in assay [4] is greater than 10 nM; in assay [5], no more than 10 nM.
Ac-[Pen]RSDTLC[dK]-NH2 (disulfide 1-7; also: homodimer via DIG linker on D-Lys8 side chains, also called peptide 207) [SEQ ID NO: 207]: the values for the 50% inhibitory concentration (IC50) in assay [1] and in assay [3] were 26 nM and 49 nM, respectively.

B5: SEQ ID NO: 52 (peptide)
peptide: H-[βAla][Pen][NMeR]SDTL[Pen]WE-NH2
modifications: disulfide 2-8
SMILES: CC(C)C[C@@H]1NC(=O)[C@H]([C@@H](C)O)NC(=O)[C@H](CC(=O)O)NC(=O)[C@H](CO)NC(=O)[C@H](CCCNC(=N)N)N(C)C(=O)[C@@H](NC(=O)CCN)C(C)(C)SSC(C)(C)[C@@H](C(=O)N[C@@H](Cc2c[nH]c3ccccc23)C(=O)N[C@@H](CCC(=O)O)C(N)=O)NC1=O
In the case of B5, the results for the IC50 in assay [4] and in assay [5] were greater than 100 nM and greater than 10 nM, respectively.

B6: SEQ ID NO: 53 (peptide)
peptide: H-[βAla][Pen][NMeR]SDTL[Pen]W[dE]-NH2
modifications: disulfide 2-8
SMILES: CC(C)C[C@@H]1NC(=O)[C@H]([C@@H](C)O)NC(=O)[C@H](CC(=O)O)NC(=O)[C@H](CO)NC(=O)[C@H](CCCNC(=N)N)N(C)C(=O)[C@@H](NC(=O)CCN)C(C)(C)SSC(C)(C)[C@@H](C(=O)N[C@@H](Cc2c[nH]c3ccccc23)C(=O)N[C@H](CCC(=O)O)C(N)=O)NC1=O
Regarding B6, the IC50 in assay [5] was greater than 10 nM.
For the molecule Ac-CRSDTLCGE-NH2 (disulfide 1-7 (inferred), also called peptide 194) [SEQ ID NO: 194], the IC50 in assay [1] is 97 nM; in assay [2] it was 2020 nM; in assay [3], 590 nM.
For Ac-C[NMeR]SDTLCGEK-OH (disulfide 1-7 (inferred); also: dimer linked by DIG, attachment not given here, also called peptide 201) [SEQ ID NO: 201] the same measures were 1 nM, 1240 nM and 28 nM.

B7: SEQ ID NO: 144 (peptide)
peptide: cyclo([Pen][NMeR]SDTL[Pen]WE)
modifications: disulfide 1-7
SMILES: CC(C)C[C@@H]1NC(=O)[C@H]([C@@H](C)O)NC(=O)[C@H](CC(=O)O)NC(=O)[C@H](CO)NC(=O)[C@H](CCCNC(=N)N)N(C)C(=O)[C@H]2NC(=O)[C@H](CCC(=O)O)NC(=O)[C@H](Cc3c[nH]c4ccccc34)NC(=O)[C@@H](NC1=O)C(C)(C)SSC2(C)C
B7: the figures for the half-maximal inhibitory concentration (IC50) in assay [4] and in assay [5] were greater than 10000 nM and 364 nM, respectively.

B8: SEQ ID NO: 151 (peptide)
peptide: Ac-[Pen][NMeR]SDTL[Pen][Phe(4-tBu)]-OH
modifications: disulfide 1-7
SMILES: CC(=O)N[C@@H]1C(=O)N(C)[C@@H](CCCNC(=N)N)C(=O)N[C@@H](CO)C(=O)N[C@@H](CC(=O)O)C(=O)N[C@@H]([C@@H](C)O)C(=O)N[C@@H](CC(C)C)C(=O)N[C@H](C(=O)N[C@@H](Cc2ccc(C(C)(C)C)cc2)C(=O)O)C(C)(C)SSC1(C)C
In the case of B8, the IC50 in assay [4] is greater than 50 nM; in assay [5], greater than 10 nM.
As to Ac-C[NMeR]SDTL[Pen]E[dK]-NH2 (disulfide 1-7; also: homodimer via DIG linker on D-Lys9 side chains, also called peptide 205) [SEQ ID NO: 205], the figures for the IC50 in assay [1], in assay [2] and in assay [3] were 2.4 nM, 444 nM and 26 nM, respectively.

B9: SEQ ID NO: 42 (peptide)
peptide: Ac-[Pen][NMeR]SDTL[Pen][Phe(2,4-Cl2)]E[dK]-NH2
modifications: disulfide 1-7; not fully specified (residue 10); printed as (Ac Pen N-Me-R S D T L Pen F(2,4-diCl) E k NH2)2 DIG, disulfide Pen-Pen; also: dimer, two subunits joined by DIG linker
For the molecule B9, the IC50 in assay [4] and in assay [5] was no more than 10 nM each time.
In the case of XRSDTLXWK (Ac Pen N-Me-R S D T L Pen W k NH2; disulfide Pen-Pen, also called peptide 208) [SEQ ID NO: 208], the IC50 was 30.5 nM in assay [1] and 412 nM in assay [3].
Ac-C[NMeR]SDTLCGEK-OH (disulfide 1-7 (inferred), also called peptide 199) [SEQ ID NO: 199]: the figures for the IC50 in assay [1], in assay [2] and in assay [3] were 58 nM, greater than 100000 nM and 4690 nM, respectively.
